Measured values reported in the supplement of paper PMC10567573.

B1: DCAF4 (parent)
chain: PGIDRPGMLCSFRIPGAWSCAWSL
B2: DLC1 (parent)
chain: NDDSADYQHFLQDCVDGLFKEVKE

Variants of: B1
Test: protein stability index of a GFP-peptide fusion (GPS, HEK-293T) (PSI 1-6); higher = more stable
Settings: c terminus: a fixed tail appended
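Note: lentivirally expressed fusions sorted by FACS into six bins by GFP to DsRed ratio, PSI derived from sequencing read proportions per bin multiplied by bin number.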

Protein stability index: each site, then its substitutions
P6: R 3.89; H 2.66; N 2.76; E 1.44; K 2.83; Q 3.62; A 3.48; C 2.65; G 3.28; V 2.93; Y 3.44; F 3.41; T 2.65; S 2.83; M 4.05
G2: Q 2.39; W 1.83; S 2.55; C 3.1; M 3.72; K 2.19; P 1.94; R 3.78; D 3.96; H 3.15; L 2.54; T 2.59; V 1.85; Y 3; I 2.26; F 1.6
R5: E 3.11; Q 3.37; D 3.46; I 1.87; L 2.46; K 2.04; N 3.74; P 2.75; M 3.37; F 3.57; V 1.94; A 2.47; C 2.89; G 2.74; Y 2.76
S11: R 3.98; A 3.01; P 3.14; F 3.19; Y 3.16; V 1.85; M 2.95; Q 2.82; E 2.68; L 2.81; C 2.19; K 2.81; T 1.56; H 3.42; D 2.44; G 3.07
G7: S 3.09; P 2.83; V 2.84; N 2.67; Y 2.28; M 2.31; T 3.46; F 4.52; K 2.7; H 2.09; Q 2.63; R 2.05; A 2.7; I 3.13; W 2.23; D 2.11
I3: F 2.26; E 4.15; W 3.75; D 1.96; G 1.51; V 2.56; K 2.3; S 2.97; H 2.39; M 2.5; A 2.91; N 4.44; T 2.93; L 3.31; P 2.33; Q 3.25
C10: N 2.65; K 2.77; P 2.2; M 3.1; Y 3.23; D 2.17; A 1.68; W 3.64; I 3.54; S 2.9; Q 1.58; E 2.82; H 3.98; G 2.12; F 3.57
D4: C 2.61; Y 2.27; Q 2.42; W 2.65; N 2.05; F 2.74; M 1.91; E 2.38; I 3.29; T 2.56; P 2.56
M8: S 3.62; N 2.11; G 3.31; C 2.66; A 2.31; R 1.99; K 2.34; Y 1.56; T 3.54; H 2.83; I 3; E 2.42; L 3.01
F12: L 2.62; H 2.68; K 1.79; C 3.41; P 3.71; E 2.5; D 2.19; N 2.87; I 2.26; G 2.29
P1: D 2.31; C 2.36; G 3.67; N 3.47; M 3.39; R 2.46; H 2.96; Y 3.48; T 3.59; A 1.93; Q 3.03; K 1.96; S 3.17; L 3.17
L9: K 3.08; T 1.7; W 2.82; I 3.09; H 2.92; S 2.32; R 3.61; D 3.26; E 2.62; Q 1.76; Y 2.31; P 2.5; V 2.85; N 2.9; G 1.77; F 2.7

Variants of: B2
Test: as above
Settings: c terminus: a fixed tail appended

Protein stability index: each site, then its substitutions
E21: S 3.27; T 1.98; G 3.51; C 2; H 2.42; L 1.67; P 3.94
D3: R 1.79; G 2.23; V 3.69; H 2.17; F 3.3; T 2.2; I 2.19
L11: C 3.07; S 5.1; R 5.35; I 3.54
V15: M 4.34; C 4.79; L 3.34; D 4.8; S 4.71; I 2.68; E 4.9; Q 4.74
G17: T 2.21; M 2.18; W 2.43; Q 2.44; K 2.73; I 2.19; V 2.16; F 2.12
S4: H 2.65; K 1.36; M 2.05; L 2.91; W 2.26
D13: M 2.34; T 2.16; Q 2.24
K23: A 2.56; P 4.57; Y 2.35; D 4.98; S 3.09; T 1.65
H9: P 3.71; C 2.53; D 2.83; Y 2.24; S 3.43; E 3.47; M 2.74
Y7: C 2.55; M 2.08; R 4.1; P 4.62; S 3.89
E24: Q 2.51; V 2.69; P 4.54; G 3.66; T 2.81; C 2.33; I 2.1; D 2.33
D16: C 2.29; M 2.81; N 2.81; L 2.12; W 1.8; V 2.99; S 3.22; T 3.28; F 2.34
D2: A 2.17; T 2.65; Q 2.91; M 2.48; N 2.27; W 2.15; C 2.14
F10: C 2.66; R 3.96; L 1.62; T 2.47; Y 2.75; N 4.56; M 2.34; E 3.75
Q12: P 4.15; M 3.73; R 2.42; F 3.48; W 1.79; L 3.31; C 3.91
N1: S 2.6; K 3.44; F 1.5; V 1.56; T 2.6; R 2.53; I 1.59; C 2.24
K20: G 3.84; I 3.05; V 3.56; D 5.24; P 4.86
C14: E 5.38; Y 2.54; F 2.49; S 4.91
L18: C 5.13; Y 3.71; I 3.73; N 5.43; Q 5.2; P 4.93; F 3.33; S 5.03
D6: W 2.52; V 2.24; P 3.38; M 2.63; Y 2.94; G 3.62; L 2.03; I 2.32; K 3; N 2.4
V22: L 3.32; Q 4.37; K 5.5; D 5.46; M 4.08; F 3.84; N 5.27; R 5.08
F19: K 5.25; H 4.82; E 4.54; I 2.72; Y 2.94; C 3.38; D 5.61; W 2.96
A5: E 2.92; D 2.42; P 2.4; I 2.05; M 2.15; Q 2.55; W 2.1
Q8: V 2.93; S 2.88; L 1.77; D 2.96
